This passage reports Kd results from US20210145933A1 (COMPLEMENT THERAPEUTICS, published 2021).

Experiment [1] concerns the target T1, C3b (human, UniProt P01024 23-667; P01024 749-1663).
T1 construct: In the cofactor assays it was plain 'pure C3b protein'; also called pure C3b protein; biotinylated C3b protein
In words: BLI (OctetRed96), immobilised biotinylated C3b, FH in solution. As to the method:
(§1) The affinity of CR1a for C3b protein was measured using OctetRed96 System (ForteBio, Pall Corp., USA). Biotinylated C3b protein was diluted in 0.2% PBST to final concentration of 0.4 μg/mL and loaded onto High Precision Streptavidin (SAX) Biosensors (ForteBio, Pall Corp., USA) for 600 s, previously hydrated with the same buffer for 20 min. C3b-loaded sensors were then washed with 0.2% PBST for 150 s (baseline) and dipped into wells containing CR1a in different concentrations ranging from 30.0 μg/mL to 2.6 μg/mL for 600 s (association) followed by wash with 0.2% PBST for 600 s (dissociation). Association and dissociation profiles were recorded and analysed with ForeBio Data Analysis v9 (ForteBio, Pall Corp., USA). The negative control i.e. 0.2% PBST containing well was used in parallel to subtract binding resulting from nonspecific interactions with the sensors. Experiments were performed using the kinetics mode, at 25° C. and sample plates were pre-agitated for 3 min. The binding profiles were globally fitted to 1:1 (one analyte in solution to one binding site on the surface). […] Binding affinities were also determined for native soluble C3b-binding complement regulators Factor H (FH) and FHL-1 to immobilised C3b.

Experiment [2] deals with T1, C3b. In words: BLI (OctetRed96), biotinylated C3b on streptavidin (SAX) sensors, FH in solution; the same table prints KD Error (%) 3.0192, Full R^2 0.9770, '167 µgml' under Data Location, FH ~155kDa. As to the method:
as §1

The target of experiment [3] is T1, C3b. The experiment can be described thus: BLI (OctetRed96), biotinylated C3b on streptavidin (SAX) sensors, FHL-1 in solution; the same table prints KD Error (%) 3.1325, Full R^2 0.9550, '278 µgml' under Data Location, FHL-1 ~50kDa. The protocol:
as §1

Experiment [4] has as its target T1, C3b. The experiment can be described thus: BLI (OctetRed96), immobilised biotinylated C3b, FHL-1 in solution. As to the method:
as §1

Experiment [5] addresses T1, C3b. The experiment can be described thus: BLI (OctetRed96), biotinylated C3b on streptavidin (SAX) sensors, CR1a in solution; the same table prints KD Error (%) 0.4186, Full R^2 0.8731, '30 µgml' under Data Location. As to the method: as §1

T1 sequence (P01024 23-667 limits assumed, chain 1 of 2): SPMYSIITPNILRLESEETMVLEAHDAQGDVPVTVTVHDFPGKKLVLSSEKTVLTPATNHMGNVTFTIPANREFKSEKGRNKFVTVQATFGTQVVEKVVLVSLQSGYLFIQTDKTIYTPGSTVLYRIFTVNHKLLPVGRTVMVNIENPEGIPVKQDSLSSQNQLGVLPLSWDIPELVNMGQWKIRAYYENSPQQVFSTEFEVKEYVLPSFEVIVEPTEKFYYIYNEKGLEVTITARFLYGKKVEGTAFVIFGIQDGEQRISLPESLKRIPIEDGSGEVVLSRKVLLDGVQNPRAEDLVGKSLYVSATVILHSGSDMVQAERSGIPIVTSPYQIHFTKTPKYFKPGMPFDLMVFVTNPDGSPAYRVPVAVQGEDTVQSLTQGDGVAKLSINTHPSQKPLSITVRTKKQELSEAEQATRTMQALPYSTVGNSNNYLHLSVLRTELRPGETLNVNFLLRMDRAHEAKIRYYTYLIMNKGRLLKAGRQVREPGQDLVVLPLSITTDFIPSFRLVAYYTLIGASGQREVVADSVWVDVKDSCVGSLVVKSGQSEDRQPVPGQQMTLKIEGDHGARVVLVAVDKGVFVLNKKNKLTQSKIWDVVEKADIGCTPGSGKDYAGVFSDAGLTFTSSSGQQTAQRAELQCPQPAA
T1 sequence (P01024 749-1663 limits assumed, chain 2 of 2): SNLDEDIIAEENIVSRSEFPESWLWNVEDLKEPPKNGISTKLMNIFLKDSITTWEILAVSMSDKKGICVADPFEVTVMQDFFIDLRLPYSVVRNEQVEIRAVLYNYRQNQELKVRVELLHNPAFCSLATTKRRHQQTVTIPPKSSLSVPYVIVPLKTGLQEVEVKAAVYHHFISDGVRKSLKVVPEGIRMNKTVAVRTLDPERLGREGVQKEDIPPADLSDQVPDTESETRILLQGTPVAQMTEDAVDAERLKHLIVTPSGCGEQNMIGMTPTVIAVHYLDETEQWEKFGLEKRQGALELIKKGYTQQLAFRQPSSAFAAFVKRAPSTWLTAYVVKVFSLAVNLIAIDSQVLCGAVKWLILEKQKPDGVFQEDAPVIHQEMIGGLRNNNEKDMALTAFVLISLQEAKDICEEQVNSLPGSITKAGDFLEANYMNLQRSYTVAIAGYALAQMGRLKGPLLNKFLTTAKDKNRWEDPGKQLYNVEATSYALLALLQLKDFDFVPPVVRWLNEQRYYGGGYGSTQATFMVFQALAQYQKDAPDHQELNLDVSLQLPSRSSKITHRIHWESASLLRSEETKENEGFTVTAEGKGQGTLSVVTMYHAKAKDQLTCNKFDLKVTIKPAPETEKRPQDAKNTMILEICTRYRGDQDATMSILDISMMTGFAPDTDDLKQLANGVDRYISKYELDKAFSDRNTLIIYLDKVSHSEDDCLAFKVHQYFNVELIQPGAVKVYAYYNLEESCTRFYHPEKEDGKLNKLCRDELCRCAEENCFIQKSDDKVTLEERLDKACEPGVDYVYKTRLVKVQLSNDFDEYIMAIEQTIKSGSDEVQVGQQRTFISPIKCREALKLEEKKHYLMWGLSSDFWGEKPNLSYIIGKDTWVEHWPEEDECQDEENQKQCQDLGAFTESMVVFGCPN

B1: Complement Factor H (FH) (other)
chain: EDCNELPPRRNTEILTGSWSDQTYPEGTQAIYKCRPGYRSLGNVIMVCRKGEWVALNPLRKCQKRPCGHPGDTPFGTFTLTGGNVFEYGVKAVYTCNEGYQLLGEINYRECDTDGWTNDIPICEVVKCLPVTAPENGKIVSSAMEPDREYHFGQAVRFVCNSGYKIEGDEEMHCSDDGFWSKEKPKCVEISCKSPDVINGSPISQKIIYKENERFQYKCNMGYEYSERGDAVCTESGWRPLPSCEEKSCDNPYIPNGDYSPLRIKHRTGDEITYQCRNGFYPATRGNTAKCTSTGWIPAPRCTLKPCDYPDIKHGGLYHENMRRPYFPVAVGKYYSYYCDEHFETPSGSYWDHIHCTQDGWSPAVPCLRKCYFPYLENGYNQNYGRKFVQGKSIDVACHPGYALPKAQTTVTCMENGWSPTPRCIRVKTCSKSSIDIENGFISESQYTYALKEKAKYQCKLGYVTADGETSGSITCGKDGWSAQPTCIKSCDIPVFMNARTKNDFTWFKLNDTLDYECHDGYESNTGSTTGSIVCGYNGWSDLPICYERECELPKIDVHLVPDRKKDQYKVGEVLKFSCKPGFTIVGPNSVQCYHFGLSPDLPICKEQVQSCGPPPELLNGNVKEKTKEEYGHSEVVEYYCNPRFLMKGPNKIQCVDGEWTTLPVCIVEESTCGDIPELEHGWAQLSSPPYYYGDSVEFNCSESFTMIGHRSITCIHGVWTQLPQCVAIDKLKKCKSSNLIILEEHLKNKKEFDHNSNIRYRCRGKEGWIHTVCINGRWDPEVNCSMAQIQLCPPPPQIPNSHNMTTTLNYRDGEKVSVLCQENYLIQEGEEITCKDGRWQSIPLCVEKIPCSQPPQIEHGTINSSRSSQESYAHGTKLSYTCEGGFRISEENETTCYMGKWSSPPQCEGLPCKSPPEISHGVVAHMSDSYQYGEEVTYKCFEGFGIDGPAIAKCLGEKWSHPPSCIKTDCLSLPSFENAIPMGEKKDVYKAGEQVTYTCATYYKMDGASNVTCINSRWTGRPTCRDTSCVNPPTVQNAYIVSRQMSKYPSGERVRYQCRSPYEMFGDEEVMCLNGNWTEPPQCKDSTGKCGPPPPIDNGDITSFPLSVYAPASSVEYQCQNLYQLEGNKRITCRNGQWSEPPKCLHPCVISREIMENYNIALRWTAKQKLYSRTGESVEFVCKRGYRLSSRSHTLRTTCWDGKLEYPTCAKR
A word on the Kd: it is the free concentration of one partner at which half of the binding sites on the other are occupied at equilibrium, for simple one-to-one binding. A lower Kd goes with a tighter complex. In the case of B1, the Kd with C3b [1] turned out to be 580 nM; with C3b [2], 583 nM.

B2: Complement Factor H isoform FHL-1 (other)
chain: EDCNELPPRRNTEILTGSWSDQTYPEGTQAIYKCRPGYRSLGNVIMVCRKGEWVALNPLRKCQKRPCGHPGDTPFGTFTLTGGNVFEYGVKAVYTCNEGYQLLGEINYRECDTDGWTNDIPICEVVKCLPVTAPENGKIVSSAMEPDREYHFGQAVRFVCNSGYKIEGDEEMHCSDDGFWSKEKPKCVEISCKSPDVINGSPISQKIIYKENERFQYKCNMGYEYSERGDAVCTESGWRPLPSCEEKSCDNPYIPNGDYSPLRIKHRTGDEITYQCRNGFYPATRGNTAKCTSTGWIPAPRCTLKPCDYPDIKHGGLYHENMRRPYFPVAVGKYYSYYCDEHFETPSGSYWDHIHCTQDGWSPAVPCLRKCYFPYLENGYNQNYGRKFVQGKSIDVACHPGYALPKAQTTVTCMENGWSPTPRCIRVSFTL
notes: also called factor H-like protein 1
For B2, the dissociation constant (Kd) was found to be 1170 nM in the experiment with C3b [3] and 1200 nM with C3b [4].

B3: CR1a (CCPs 8-10 of human Complement Receptor 1, secreted from HEK293 cells) (receptor)
chain: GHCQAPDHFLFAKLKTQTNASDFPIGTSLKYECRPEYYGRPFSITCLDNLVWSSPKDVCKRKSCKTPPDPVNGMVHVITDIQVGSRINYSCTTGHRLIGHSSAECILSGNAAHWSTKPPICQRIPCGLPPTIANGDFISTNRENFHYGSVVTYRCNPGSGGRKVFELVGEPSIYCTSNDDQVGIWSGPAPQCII
notes: also called Human Complement Receptor 1 CCPs 8-10; recombinant CR1a protein
In turn, B3 displayed a dissociation constant (Kd) with C3b [5] of 21 nM. This counts as double-digit nanomolar.
